Assay results as given in PMC5147862.

Biological target: KRAS, mGppNHp-bound (human) (UniProt P01116)
Test: fluorescence polarisation; MBP-tagged effector domain (0.05-100 μM) titrated to 1 μM RAS-mGppNHp; 50 mM Tris/HCl pH 7.5, 100 mM NaCl, 5 mM MgCl2, 3 mM dithiothreitol, 25°C; quadratic ligand binding equation

B1: RAS association (RA) domain of RASSF5, MBP fusion (domain or fragment)
chain: EETQRPPTLQEIKQKIDSYNTREKNCLGMKLSEDGTYTGFIKVHLKLRRPVTVPAGIRPQSIYDAIKEVNLAATTDKRTSFYLPLDAIKQLHISSTTTVSEVIQGLLKKFMVVDNPQKFALFKRIHKDGQVLFQKLSIADRPLYLRLLAGPDTEVLSFV
Kd: 421 nM
